The results in this text go back to US20190359693A1.

The target in this assay is hemagglutinin (HA) of influenza A/Env/MPJ193/09 (H3N?) (influenza A virus). Put plainly: cell-based or functional assay.

In turn, MD3606 (Fc fusion) returned an Average neutralization titers of 11.8 nM.
